# From the supplement of paper PMC7125110
# ± gives the standard error. Fewer inactive variants are shown than the library holds.
# B1: glmS ribozyme (parent)
# chain: AUAAAAGCGCCAGAACUACAGAAAUGUAGUUGACGAGGAGGAGGUUUAUCGAAUUUUCGGCGGAUGCCUCCAAA
# What was measured:
# Conditions in all cases: with glucosamine-6-phosphate
# [1] = variants of: B1; test: self-cleavage kobs at 160 uM GlcN6P; higher = faster cleavage; RNA array
# Summary of the method: (§1)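 Barcoded ribozyme variants on sequenced MiSeq chips were transcribed in situ by E. coli RNA polymerase and followed at 37 °C through a hybridised Cy3 probe. Glucosamine-6-phosphate at 40 μM to 10 mM in HEPES/KCl/Mg(OAc)2 buffer was flowed in, and tiles were imaged over ~14 h. Signals were normalised to baseline and to non-cleaving reference variants, and per-tile medians were fit to one- or two-exponential decays to give kobs. Weighted Michaelis–Menten fits across concentrations gave kcat and KM.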
# [2] = variants of: B1; test: self-cleavage kobs at 640 uM GlcN6P; higher = faster cleavage; RNA array
# Summary of the method: as §1
# [3] = variants of: B1; test: self-cleavage kobs at 2500 uM GlcN6P; higher = faster cleavage; RNA array
# Summary of the method: as §1
# [4] = variants of: B1; test: self-cleavage kobs at 10000 uM GlcN6P; higher = faster cleavage; RNA array
# Summary of the method: as §1
# [5] = variants of: B1; test: self-cleavage kobs at 40 uM GlcN6P; higher = faster cleavage; RNA array
# Summary of the method: as §1
Variant,self-cleavage kobs at 160 uM GlcN6P [1] [s⁻¹],self-cleavage kobs at 640 uM GlcN6P [2] [s⁻¹],self-cleavage kobs at 2500 uM GlcN6P [3] [s⁻¹],self-cleavage kobs at 10000 uM GlcN6P [4] [s⁻¹],self-cleavage kobs at 40 uM GlcN6P [5] [s⁻¹]
C8G U46C,< 1e-05,< 1e-05,< 1e-05,< 1e-05,–
A14U U30C G43A,< 1e-05,< 1e-05,< 1e-05,–,–
A53G U69C,0.000469 ± 8.4e-05,0.00235 ± 0.00048,0.002 ± 0.00044,0.00674 ± 0.0018,0.000897 ± 0.00014
C34A G38U U69A,–,–,–,–,< 1e-05
A15G C50A A64G,–,–,–,–,< 1e-05
G32U U54G,7.28e-05 ± 2.7e-05,0.000164 ± 5.1e-05,0.000272 ± 6.1e-05,0.000903 ± 0.00012,–
A42G A48G U54A,< 1e-05,–,–,–,–
C11G A42C,< 1e-05,< 1e-05,< 1e-05,–,–
A15U C34U C50G,0.000153 ± 3.2e-05,–,0.000132 ± 3.4e-05,–,–
A6U G38U G60C,< 1e-05,–,–,–,–
A15C U49C,< 1e-05,< 1e-05,< 1e-05,< 1e-05,< 1e-05
G29U A39G U56A,8.2e-05 ± 2.8e-05,0.001 ± 0.00039,0.00181 ± 0.00055,–,–
C50A C67U C68U,6.13e-05 ± 3.1e-05,6.87e-05 ± 2.8e-05,0.000153 ± 6.2e-05,–,–
U49C G51C,< 1e-05,< 1e-05,< 1e-05,–,–
A15G G44U G51C A52G U56G,< 1e-05,< 1e-05,–,–,< 1e-05
C61U G62U,< 1e-05,< 1e-05,–,< 1e-05,–
G13C A14G U55G G59U C68G,0.000122 ± 5.4e-05,0.000281 ± 7e-05,9.91e-05 ± 3.7e-05,–,–
A6G C16G G40A C50U C70G,< 1e-05,< 1e-05,< 1e-05,< 1e-05,–
G40U C61G,< 1e-05,< 1e-05,–,< 1e-05,–
C8G U30C,–,–,< 1e-05,< 1e-05,< 1e-05
G29A A39C C61G,< 1e-05,< 1e-05,–,< 1e-05,–
G41A G59A,< 1e-05,–,–,–,< 1e-05
G32C A36U C50A C70G,0.0002 ± 3.9e-05,0.000332 ± 8.2e-05,0.000299 ± 0.0001,–,–
G35C G37C U46C G63U,< 1e-05,< 1e-05,< 1e-05,–,–
G38U U65G C70U,< 1e-05,< 1e-05,–,–,–

Variant,self-cleavage kobs at 160 uM GlcN6P [1] [s⁻¹],self-cleavage kobs at 640 uM GlcN6P [2] [s⁻¹],self-cleavage kobs at 2500 uM GlcN6P [3] [s⁻¹],self-cleavage kobs at 10000 uM GlcN6P [4] [s⁻¹],self-cleavage kobs at 40 uM GlcN6P [5] [s⁻¹]
A6U C10G C68U,< 1e-05,–,–,–,–
G29U G37C A39U,< 1e-05,< 1e-05,–,–,–
C8A A33U,< 1e-05,–,< 1e-05,< 1e-05,–
G37U C58A,< 1e-05,–,–,< 1e-05,–
G29U U45G G59C C67U,–,–,–,< 1e-05,< 1e-05
A6G G40C C50G,< 1e-05,–,< 1e-05,–,–
C8A A15U U47C U55A G63C U65G,< 1e-05,–,–,–,–
A6U A48C U57G,< 1e-05,–,–,–,–
C58A G63U U69C,–,–,–,–,< 1e-05
U30A U49A G62U,–,–,–,–,< 1e-05
A15G C16U A52U U57A G59U,< 1e-05,–,–,< 1e-05,< 1e-05
A15C G66A,0.000372 ± 0.00011,0.000599 ± 0.00014,0.00264 ± 0.00049,0.00503 ± 0.0012,8.43e-05 ± 1.9e-05
G9C A15U G43U,< 1e-05,< 1e-05,< 1e-05,–,–
G35U U69A,< 1e-05,< 1e-05,< 1e-05,–,–
G35C U49G,< 1e-05,< 1e-05,< 1e-05,–,–
C16G U47A C50U A53G,< 1e-05,–,–,–,–
U49G G63U,< 1e-05,–,< 1e-05,< 1e-05,–
C8G G32U C58U,< 1e-05,< 1e-05,–,–,–
G13C C34G G35C G43U A48C C67G C70U,< 1e-05,< 1e-05,–,–,–
U46C A53G U54C,0.000138 ± 2.9e-05,0.000673 ± 0.00011,0.00116 ± 0.00021,–,–
U45C A48U U69C,< 1e-05,< 1e-05,–,–,–
C10U A42G A53U,< 1e-05,–,–,–,–
U30C A36G,< 1e-05,–,–,< 1e-05,–
G43U G59A,–,–,< 1e-05,< 1e-05,< 1e-05
G9C G41A,< 1e-05,–,< 1e-05,< 1e-05,–
